For the test, the target named is Elastase (UniProt P00772).
Chain of UniProt P00772 (P00772 27-266): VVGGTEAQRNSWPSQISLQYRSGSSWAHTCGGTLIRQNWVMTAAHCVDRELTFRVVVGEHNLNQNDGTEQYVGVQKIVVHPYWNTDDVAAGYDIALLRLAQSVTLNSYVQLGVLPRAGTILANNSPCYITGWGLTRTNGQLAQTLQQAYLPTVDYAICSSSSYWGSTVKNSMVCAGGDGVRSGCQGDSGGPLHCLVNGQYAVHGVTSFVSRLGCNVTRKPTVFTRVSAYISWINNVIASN

B1: S1 (…) (peptide)
peptide: VGVPGVGVPGVGVPGV
B1 registered an elastase inhibitory activity (%), peptide at 10-20 mM, substrate N-Succinyle-Ala-Ala-Ala-pNA of 76.3%.

The values above are taken from PMC10673124.
